{GalNAc3} = trishexylamino-C6 triantennary GalNAc conjugate
Tests used:
CYP1A2 mRNA = CYP1A2 mRNA induction in plated human hepatocytes; details: ASO 100 μM, human hepatocytes 72 hr, vs PBS 1% vehicle, mean ± SD of triplicate
Protocol: (§1) Upon receipt, sandwich-cultured cryopreserved human hepatocytes (with Matrigel) plated on collagen-coated 24-well plates were inspected under a microscope for general morphology and viability. Fresh culture medium (OptiCulture Hepatocyte Media) was added to each plate that passed the visual inspection. The plates were then placed in an incubator set to 37°C with 5% carbon dioxide (CO2) for overnight acclimation. […] During this time, cells in parallel wells were also treated with 50.0 μM omeprazole (inducer of CYP1A2), 1,000 μM phenobarbital (inducer of CYP2B6), or 10.0 μM rifampicin (inducer of CYP3A4) in triplicate, respectively.
(§2) After collection of the supernatant for catalytic analysis, the remaining cells were washed and lysed with QIAGEN Buffer RLT from the QIAGEN RNeasy Kit. […]
(§3) The activity of each CYP enzyme was measured by comparing the peak area ratio of the corresponding product to the peak area ratio of the internal standard. The fold induction was calculated by dividing the peak area ratio of each individual well from the treatment group by the mean of the peak area ratios obtained from the vehicle control wells. […] The ΔCƬ was calculated as follows: ΔCƬ = CƬ (CYP) − CƬ (GAPDH). […] The ΔΔCƬ was calculated as follows: ΔΔCƬ = Δ CƬ (Treatment) − Δ CƬ (Vehicle). The fold induction of the target CYP was calculated using the following equation: Fold=2^-ΔΔCT.

CYP1A2 = CYP1A2 enzyme activity induction in plated human hepatocytes; details: ASO 100 μM, human hepatocytes 72 hr, vs PBS 1% vehicle, mean ± SD of triplicate
Protocol: as §1
(§4) The plates were then incubated at 37°C with 5% CO2 for 60 min. […] Aliquots of the supernatants were analyzed by LC-MS/MS for the formation of acetaminophen, hydroxyl-bupropion, or hydroxyl-midazolam as markers for enzyme activity of CYP1A2, CYP2B6, and CYP3A4, respectively.
as §3, with “The fold induction of the target CYP was calculated using the following equation: Fold=2^-ΔΔCT.” left out

OATP1B3 = test system: T1, OATP1B3; assay: OATP1B3 inhibition study in MDCK cells; type: in vitro ADME; details: 100 μM ASO, 2 μM CCK-8
T1 construct: expressed in transfected cells; host or cells: MDCK-II
Protocol: A 96-well cell culture plate containing a monolayer of MDCK-II cells grown on a permeable support and a corresponding receiver tray was used. The basolateral compartment of the culture plate and wells were washed with warm HBSS three times, with wells of the culture plate serving as the apical compartment. The wash was aspirated by adding 150 μL of 37°C HBSS to both compartments. Plates were incubated at 37°C with orbital shaking at 60 rpm for 15 min for OAT1, OAT3, OCT1, OCT2, OATP1B1, and OATP1B3 (±5 min). The pre-incubation buffer from both compartments was aspirated and 150 μL of the following was added to the basal compartment. […] Samples containing probe substrate were added to 200 μL of scintillation fluid and counted on a 1450 Microbeta (PerkinElmer), whereas samples containing the test article were kept frozen. Test article concentrations, including control samples, were evaluated by an LC-MS method.
Signal to noise for probe substrates was calculated by dividing the uptake of the probe substrate in transporter-expressing cells by the uptake of probe substrate in control cells not expressing the transporter of interest. […]

CYP2B6 mRNA = CYP2B6 mRNA induction in plated human hepatocytes; details: ASO 100 μM, human hepatocytes 72 hr, vs PBS 1% vehicle, mean ± SD of triplicate
Protocol: as §1, §2, §3

CYP3A4 = details: ASO 100 μM, human hepatocytes 72 hr, vs PBS 1% vehicle, mean ± SD of triplicate
Protocol: as §1, §4
as §3, with “The fold induction of the target CYP was calculated using the following equation: Fold=2^-ΔΔCT.” left out

OAT3 = test system: T2, OAT3; assay: OAT3 inhibition study in MDCK cells; type: in vitro ADME; details: 100 μM ASO, 10 μM p-aminohippurate
T2 construct: expressed in transfected cells; host or cells: MDCK-II
Protocol: A 96-well cell culture plate containing a monolayer of MDCK-II cells grown on a permeable support and a corresponding receiver tray was used. The basolateral compartment of the culture plate and wells were washed with warm HBSS three times, with wells of the culture plate serving as the apical compartment. The wash was aspirated by adding 150 μL of 37°C HBSS to both compartments. […] The pre-incubation buffer from both compartments was aspirated and 150 μL of the following was added to the basal compartment. […] OATP1B1, 2 μM [^3H]-estradiol-17 β-D-glucuronide; and OATP1B3, 2 μM [^3H]-cholecystokinin octapeptide (CCK-8). […] Plates were incubated at 37°C with orbital shaking at 60 rpm for 5 min. Both sides of the permeable support were washed four times with ice-cold PBS and 60 μL of cell extraction solution was added to each well. Plates were agitated for 15 min at 120 rpm, after which a 30-μL sample of the extract was collected. […] Test article concentrations, including control samples, were evaluated by an LC-MS method. Signal to noise for probe substrates was calculated by dividing the uptake of the probe substrate in transporter-expressing cells by the uptake of probe substrate in control cells not expressing the transporter of interest.

ISIS 681257: 20-mer 2′-MOE gapmer PS/PO mixed backbone ASO conjugated to 5′-trishexylamino GalNAc3, targets Lp(a), sequence TGCTCCGTTGGTGCTTGTTC (5' {GalNAc3}, sugars by position and backbone not given here; 2'-MOE gapmer with mixed PS/PO backbone)
Fold induction of CYP1A2 mRNA (CYP1A2 mRNA): 1.71 ± 0.0853 fold
Fold induction of CYP1A2 enzyme activity (CYP1A2): 1.40 ± 0.116 fold
Enhancement of probe substrate uptake, OATP1B3 (OATP1B3): 38.3%
Fold induction of CYP2B6 mRNA (CYP2B6 mRNA): 1.36 ± 0.347 fold
Fold induction of CYP3A4 enzyme activity (CYP3A4): 1.67 ± 0.310 fold
Enhancement of probe substrate uptake, OAT3 (OAT3): 18.2%
